Assay: protease stability score; higher = more stable; yeast display proteolysis, trypsin and chymotrypsin;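 also: relative to predicted unfolded state with 0 unfolded-like and 1 meaning tenfold more protease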

DEDLEESHYAIEYLIRLFETGDWDTVDRFFDPRTRLRVNGKNHHGREEVTEFVEDILKRYDHKQFTFTHVEFQGEKIILHGKLHLDINGVHFEHDFILIIKKIDGRWYVDEIHIS
protease stability score: 1.39

DEDLEETRKLIELLTRAFFTGDEDEMKNLADPSVRIIINGREVHGMDEWVRLLEEIRLEDVHSNLRDIRYFNGVVEVDGEFRLDGNINGRRFHHVFDLRLYVIKVNGRWRVKSWRNI
protease stability score: 1.83

DEDLERARHAIEELIENWRTGNFREIERLMDPNVRIIIGDKTLHGRESMHRFVEEARLEHFELRHVSIVNGRVHVHGTEDWRIGDKRETREVRIVIHKVDGRWNFEFKIIH
protease stability score: 0.983

DEDLKLMLTLTHLWLHAVATGDEDLQTKLADPDVRFIFNGRIIHGMDEWRRFLKELRIKIEDTDHKDSDLYGEKLHIDGHIVIRIHVGEKNERIDTRVHIHVLVINGKLKSVKIETR
protease stability score: 2.13

DEDLQFLKNFKEEWIKNLRTGDEDAVQKLADPNVRIDIDGKELHGREVMLEMLHQETNELRLKDVKDKHMTVQGDKIHWDGILIITINGKEIRRRVHIFVQKVDGRWVIESEIHR
protease stability score: 0.942

DEDLRMAFEMVRISDHEIDTGDEDSWTKLFDPHVRIRFPGRMLHGREYLHYVLKHARIHYDDSELKDVKFVGNKLLVDVHVRGTFFIDGQNIHTEVKRIHMIEKYNGKWKTTEMEIK
protease stability score: 0.469

DEDLSRNFHQFIEALKQNDTDRMKELIDPNARMRYGDKQLHGRENILNYWKKLNDQARVDLDLKSVRNDENHIRYNYKMRVHVNGRPVEDTATAEIRATNGRIVDIYIDFDPEKLRQIES
protease stability score: 2.16

DEDMDISKHWAELWMKLEKTGDEEELRKLMDPHARIDFNGVDIHGMEFWLELLKREKDKFKNVKITLEEFRIYGDYVHFHVIIHQGDYHLRIEITIIVVNGRHKELIIRIK
protease stability score: -0.059

DEDMELVLKWVHEFAEMFETGNEHELLRMLDPHVRLEYGEKEIHGREDITRFWEEKIRKLGIKHIRVHIRDARIQGEKLHLDTELKLDYNGKTDHERYIIIIIKINGKWSIKSFQVE
protease stability score: 1.55

DEDMKIASHVFHLIMHILHTGDEDSLKELADPDYRWLFNGVSNVGREESVRRLEEIRLEMKDTKTRSAKIYDGRIELHSHVRGNLNVNGVEIEHSVRSRLFVSKVDGKWLVEHIEIG
protease stability score: -0.045

DEDMREAVKIAHRWLQHMTTGDEESIQSLADPHTKILFNGRELHGRHVITHLIREIRIKYTHLEHRDWRVVDGQLHLDFREDLRIEFDGQVRRIEIESHFMIIKINGRWFVHEVHLR
protease stability score: 0.636

DEDNEYVEYMHELIARALITGDFELWLKLMDPNTRMQIDGKEFHGREEFRKRLEHLRIDRVRYNVRHFHIIGDKLHVKSEFEIDGQIDGVDRHFSVEIRVLIWKINGRWILRDETTH
protease stability score: 1.69

DEDNREIKHAIHLLLTAFLTGNEDWLKELADPNVRILFNGRLFHGREHFLKFLLKFLRDYGIDHNHIQHSHLEIQGNFVHTHLHLEIDVNGRRQEFELRVISEKINGRWHLRELEVHIR
protease stability score: 2.43

DEDQEEANHLIDLFIASLNTGDWEIIDHMADPHVKFRSVVNGKREKHIGREEMIRWFEEIEERFGYENFHVRYQRFEVQGEKMNTDITIEWNGRRFRSIILLHVFNGKLKSMEIIDI
protease stability score: 1.25

DEDQEEMYKALNHLLTLLKTGDEHVLKRLIDPHVRVEIDGKDRHGMSFLLEIIKEELIRIDHIKDFRIHHVEMVGDKAENHVKLIGEWNGKEFRLRMHVYSWKFDGKWIMKSIKIE
protease stability score: 1.75

DEDQEIAEHVAELILELLLTGDEEKFLTLLDPNVRIIVGDKELHGREDWMRLFRHMRVRHVELRKIEVQGEKVHVDSRLDVEFNGRRRNINANWIVLKVNGRWTIRSVELE
protease stability score: 2.17

DEDQEIVERFTSLINHLILTGDEEEMKKLLDPNARWIYGDKHIHGRDEFIELLRQIKNVKTRFYIRHIDVINGKLVMHVEIELEFNGKRDHLRQIIISEKVDGRWRAKEFETR
protease stability score: 0.66

DEDQKAATRFTELLVRLLFTGDEEMWLQLADPRMILDFENHSEHGMKLVVKLLHETIERRGMRIDDMHHTHIEFQGEWVRVHVRVHERIGDKRISVEVEYKSLKVNGRWILHEIHIH
protease stability score: 0.372

DEDQKEAEDMAELITKLINTGDEEHWLDRADPHMKVDIDGVESVGREEIERLLHELIRKWGVSKIESRNKHVTIINGRVHFRINIHVNGQEYLLILINDKVDGRWRVQETRVHIT
protease stability score: 1.63

DEDQKETEEAIKELEKLSKTGNEHDFLRYFDPNMRVEIGDKEIWGRERALEIFHELGVKHIEVKRVDVQGDKIRMDTLLRVNGQELHTQVVALKINGQWILESYRVE
protease stability score: 1.09

DEDQKFAMEVLELLVRAKVTGNEELLEKLLDPHTRVDINGREIHGWEEMLRILHEWRIRDLEFRVRDIHIIDGRLKIDGEERVEGEIDGRNMEIKYRTEVYYEKINGRWIVREMSVR
protease stability score: 1.75

DEDREAAEFVVEHLLRALSTGNEEEFLSLLDPTVKWEIDGREYHGRELVSKILHEIRIKTTEFRSTRHEYQGDYLKLDGILHTTVEIDGKRKHLDVNLHMLILKYDGRWLLKSMSVR
protease stability score: 1.53

DEDREAIELLVRLLITAHETGDEKILWDLMDPNVRYHQGNFELHGREEIMELESRLRKHLGINHISFRLHDMQHIGDKLILHGSLMFRIGDKEHHTEVDIIVIKINGKWLIESIFIR
protease stability score: 1.57

DEDREAMEELVRRTLKASSTGDEELSDQLMDPNTRIEVNGKHLIGREMWIKFLVELRIIFHEVHVHDVRSVGDKVDADVHVIFELRINGKRIDIETRVTFYFRKINGRWLVKSIRFE
protease stability score: 1.07

DEDREDARKIFHDFIRALNTGDEDTLAELLDPNTKIHIGEFNLIGMERVREWLQRVDHTHTHIKVRRVDVVNGQIIMDTETEIHIHIGDFTLEIQTRTEMVILKINGRWFIKRVNLI
protease stability score: 1.72

DEDREDVKKYIEDLFHHLETGDFKEIEKNFDPNVRIFIDGRTIHGREEMVRWAEEMRYKLHEVRLHEVETQGEKIHIDLEIDIEIRIGDKRRRIRTRVIIFARKINGRWYVHQTDFR
protease stability score: 2.71

DEDREEAIKTVEETVELIATGDFEKFEELVDPNVRIDVNGVDVIGREDWRRRVEEIRISMRDSDIKRVRSVNGVMHVDGRIELEVHVNGKTKNVNLRTHWYIVKINGRWLIHSVHFV
protease stability score: 1.99

DEDREFAERVMKLLLHSLITGDFRRIHELADPHMRLHQGDFNIIGWDTIYEIMFRLGFRLDDFRIEHMDVVDGRVFLQGRSDGTINGRRTRTNVNIIIEKIDGRWYLRENEVR
protease stability score: 1.08

DEDREFLIEMIELFMKFLLTGDWEQFAHLADPNDRFNVNGRDNHGREVWIKEVEEMRIHSLHIEDQDAFNGVIHVDFRVEGHFDGRTHIQKVEIHIRIVNGRVKSVEHHIH
protease stability score: 0.575

DEDREHVERIVDILIHSFKTGDESFLENYLDPNARLEVGDKTHHGREEVKKLVIRWWHELGIKHVHVDKKTTIDGRIIIHLTILFNGRRFETELIWVIVDGVINKVDIRIQER
protease stability score: 1.45

DEDREHVKWMIEKEIHAWRTGDEDELRKMLDPNVKFEQGDKRIHGREILMERMRKLGADHVEFQLHDIELQGEKVLLFIELRIHVNGRDIRLEIIIYLDKVNGQWHVRHYEIR
protease stability score: 0.745

DEDREHVLKVTRLIWRAWMTGDFERISHLIDPNAKIDINGVDLHGREKLRHHLERVDYMHLESEHERRIDIIGDFVRIEFRFTVILIVNGQEVRDTTHVEIRARIVNGRLTEVYVHEH
protease stability score: 1.55

DEDREIAERFLRRWSHDTLTGDEDSLRDMVDPNVRLEYGDFTFHGREEWLKFFREIRVEDSHVHHMHVFNGQARIKLDFRVRFNGKELRTKVTLSVDKVDGRWIIRSIHFE
protease stability score: 1.64

DEDREIMERFIHILAEVWRTGDEHSLERLFDPNYKTLYDGRDVHGRETHIEILRTLGLERIEVRIKRFRVQGDKLHVNVELDVNGRTTEVEIRWRKIDGRWINHDMEIE
protease stability score: 1.39

DEDREMLEELTRRLAHSVETGDEDHHSHLADPNTRETIHINGRTFEHHGWEIWSELLTRLGADHMHLDRVHVVNGRVEIRSRVHVGDKEYKVHILMVVINGRLKEVSVHIH
protease stability score: 0.721

DEDREMVEEVIRERLEDLKTGDWKKLADLADPHVRLDVGDKEYHGREEFTKTFTDILRILGHSNIQTDLKHIDFFDGRLDVHQTVHIGDKTIHHQILFHKFDGKWKITEMRITIR
protease stability score: 0.928

DEDREQAEEVIRSITEAMQTGDEHLWERMIDPNVRVIIDGRTYHGRLAWDLFRERYDVVHSSDSRIRHLRTYNGRVEVITQLRLDVEINGQRFETSMETHLIVLKFNGKWTVRRMEIH
protease stability score: 1.67

DEDREQYREIMSHIWHSIHTGDEETQEDMADPDARFIIGDKTFIGWKQFYEKLREIRIHIDHVHIRHIEVQGDKFRVEFQIHRTIIYNGRNLHETTEAETHLHVVNGRLHSWSFRVR
protease stability score: 0.885

DEDRERSEEIAKLILRSWLTGDERLLEELFDPHARVHINGKEFHGMEKFTEFSRHIRMDRVIIHDVKLIGDKMHIEQEIIITFDGRHLHVRSIIIVLKVNGQWVSRSLEIH
protease stability score: 1.16

DEDRERSKKEFDTLVKSELTGDEDSYRRMADPDTRLVVGDKEYHGRSAMRYFLRQVDHMEHVIIRRVEYQGDYAHFDITVHGDINGRRDTVHFHLVMYKIDGRWVVHELIIK
protease stability score: 1.32

DEDRESARWLFEIHSRVFETGDEDSLHRLFDPNARFDINGREVHGMDLWIHLLKHIRVSVKDMKIRRHKSVNGRLETDYDSTLSFHVGDKTIELEVRVILVSHKVNGRWEIKEEIVH
protease stability score: 1.24

DEDRESEEKAIKTWWHMVETGDEKLFKKLADPDTKMVINGVEKHGMETVHEFLNRVDHIRQFDIEDHRFYNGRLELHIRVDVEFNGRRHETERRVIASKVNGRWLLKEVIVH
protease stability score: 0.689

DEDRESFEEVSRLLMEDIKTGDEDSWKKLADPHDRIVVGDKTSIGMETSIHLLRVLIHHIRFKDSKIKDIHSQGDKLHLETHLHGEVNGVEYHTFSHIVVRKVDGKWHLESVIII
protease stability score: 1

DEDRESMLEHFRLLVEQTKTGNEESTEENIDPHVRLIFNGQEYHGRHEVARYLVEIWRRVDHVRIHLTHMEVYDGVMEIHGQYHLDFDGRHVTHEFRIIFTKVDGRWRIHELRVQ
protease stability score: 1.38

DEDREVAENMVRLFIHFLLTGNEERLNQYFDPHTLLIVGDKRYHGMEESNKWIVELWTERVEIRHIEVDYYGDKVHATISGHHVGIVDGKRIETQVDFHFRIDKIDGRWVAREVEIRHD
protease stability score: 2.06

DEDREWIERFNRILIESLTTGDEHTLKELIDPNARLVINGRDIHGREEFVRLLSEMGVKHFHVHDVKVVGNKAVTRGILYFNGREYDVDVFTRKIDGRWLYESLEVK
protease stability score: 2.02

DEDRFETELAVDLWLRTLETGDEHFLHRLADPRVQLEYGNFHYHGRHEFLHWFHDLKRKYKNLRVDIRDVRDIDGRIILHTELKQGDKHIESKVYMEKYDGRWLIKSYEIR
protease stability score: 0.971

DEDRHDVKRWLEFLVKLMETGDEEVLRTLADPNTRVDINGRDNHGWESVVTVLRELGANHIHHIEIKHLHIINGRVHIDMRVHRIQGDKTLDFDIHLHANKYNGRWHLKSVQIH
protease stability score: 1.24

DEDRHYIEQALEILEHNIQTGNWEIIARLLDPNMRLHIGDKDIHGREESADIIRHWIHRFPNLRVRIDHFEIYGNKVIFRGTMDFDGQRHDISIFSHKVNGRWLIKSIEYR
protease stability score: 1.59

DEDRIISEEAAKLFLHLLLTGDEKVFDEYLDPRTRLIIGDKEFIGRETLRKTMQEFRHKAGIDHMHIRDSRIELIDGRVVQHLEIHVRFNGKSEDRVIHVFIEKINGRWHIHFVEVKID
protease stability score: 1.53

— the NTF2 design screens of Basanta et al. (2020)
